Experimental data: the nanobody polyreactivity screen of Harvey et al. (2022)

Assay: yeast display, Sf9 membrane polyspecificity reagent, FACS + sequencing; frameworks hold sequencing errors
In short: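 A synthetic nanobody library was expressed on Saccharomyces cerevisiae BJ5465 by galactose induction for 36–48 hours. The library was stained for 1 hour at 4 °C with 10% biotinylated, detergent-solubilized Sf9 membrane reagent and enriched with streptavidin microbeads before FACS. Low and high (top ~1%) gates were set on anti-HA fluorescence for expression and streptavidin fluorescence for reagent binding, and each polyreactivity label reflects the gate of origin.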

Row | Sequence | polyreactivity (PSR sort gate)
1 | QVHLVESGGGLVQAGGSLRLSCAASGRIFGDNAMGWYRQAPGKERELVAAITVNAGSTHYADSVKGRFTISRDNAKNTDYLQMNSLKPEDTAVYYCAKQTAPVTGVGPYYYWGQGTQVTVSS | low polyreactivity
2 | QVQLVESGGGLVQAGGSLRLSCAASGSIIFAYAMGWYRQAPGKERELVAAITTGVSTNYADSVKGRFTISRDNAKNTVYLQMNSLKPEDTAVYYCNADVDYGFDAGVAVQVVIHDYWGQGTQVTVSS | low polyreactivity
3 | QVQLVESGGGLVQAGGSLSLSCAASGSIFESNAMGLYRQAPGKERELVAAYADSVKGRFTISRDNAKNTVYLQMNSLKPEDTAVYYCAKSLSLYVVPLYEYWGQGTQVTVSS | low polyreactivity
4 | QVQLVESGGGLVQAGGSLRLSCAASGFIFQYNAMGWYRQAPGKERELVAAISKSGGRTYYADSVKGRFTISRDNPKNTVDLQMNSLKPEDTAVYYCAALYVWLWGYRFDYWGQGTQVTVSS | high polyreactivity
5 | QVQLVESGGGLVQAGGSLRLSCAASGFTFYYYAMGWYRQAPGKERELVAGINSDGNTYYADSVKGRFTISRDNAKNNVYLQMNSLKPEDTAVYYCAASKLWPKNFVRHDYWGQGTQVTVSS | low polyreactivity
6 | QVQLVESGGCLVQAGGSLRLSCAASGLIFYRYAMGWYRQAPGKERELVAAISWSGGTTYYADSVKGRFTISRDNAKNSVYLQMNSLKPEDTAVYYCAADAVYYHFDYWGQGTQVTVSS | high polyreactivity
7 | QVQLVESGGGLVQAGGSLRLSCAASGLIFSGYAMGWYRQAPGKERELVAAINSGTSTTYADSVKGRFTISRDNAKNTVYLQMNSLKPEDTAVYYCNTPHNQDKPYPGYDYWGQGTQVTVSS | low polyreactivity
8 | QVQLVESGRGLVQAGVSLRLSCAASGPTFRGNVMGRYRKAPGKERELVAAINWTGSSTYYADSVKGGFTISRDNAKNTVYLQMNSLKPEDTAVDYCATRIGPHGGGLPRDYWGQGTQVTVSS | low polyreactivity
9 | QVQLVESGGGLVQAGGSLRLSCAASGSTFSYNAMGWSRQAPGKERELVAAISSAISTNYADSVKGRFTISRDNAKNTVYLQLNSLKPDDTAVYYCNKVPDFVFLISYQLYYTKRLGYWGQGTQVNVSS | low polyreactivity
10 | QVQLVESGGGLVQAGGSLRLSCAASGIIFHFNDMGWYRQAPRKERELVAAIDSTGSTNYADSVKGRFTISRDNAKNTVYLQMNSLKPEDTAVYYCAVLNHRVDSVLTRYYYWGQGTQVTVSS | low polyreactivity
11 | QVQLVESGGGLVQAGGSLRLSCAASGRIFKYYAMGWYRQAPGKERELFAAISRGGSTYYADSVKGRFTISRDNAKNTVYLQMNSLKPEDTAVYYCNAYRHGYVAYRRYDYWGQGTQVTVSS | high polyreactivity
12 | QVQLVESGGGLVQAGGSLRLSCAASGSTSTYYAMGWYRQAPGKERELVATISSTGNTKYADSVKGRFTISRDNAKNTVYLQMNSLKPEDTAVYYCNKRRSARFSSWGRVSYDYWGQGTQVTVSS | high polyreactivity
13 | QVQLVESGGGLLQAGGSLRLSCAASGLIFVVNDMGCYTQAPGKERELVAAISYSGSSTYGDSVKGRFTISRDNAKNTVYLQMNSMNPEDTAVYYCARGSTVRTRGVGYWGQGTLVTVSS | low polyreactivity
14 | QVQLVESGGGLVQAGGSLRLSCAASGSIFESYAMGWYRQAPGKERELVASISGGGSTYYADSVKGRFTISRDNAKNTVYLQMNSLKPEDTAGYYCATVYVRYRQSRLIRYGYWGQGTQVTVSS | high polyreactivity
15 | QVQLVESGGGLVQAGGSLRLSCAASGSIFSTNDMGWYRQAPGKERELVAAISVSGGSTYYADSVKGRFTISRDNAKNTVYLQMNSLKPEDTAVYYCNADYTRGTMYYWGQGTQVTGSS | low polyreactivity
16 | QVQLVESGGGLVQAGGSLRLSCAASGLIFSTYDMGWYRQAPGKDRELVAAISTGGSTYCADSVKGRFTMSRDNAKYTVYLQMNSLKPEDTAVYYCAAGYTYHSWPLYYWDYNYWGQGTQVTVSS | low polyreactivity
17 | QVQLVESGGGLVQAGGSLRLSCAASGSIFRVYAMGWYRQAPGKERELVAAISVSGGSTNYADSVKGRFTISRDNAKNTVYLQMNSLKPEDTAVYYCNRKQQVSSELDYWGQGTQVTVSS | low polyreactivity
18 | QVQLVESGGGLVQAGGSLRLRSAASGFTFHRYAMGWSRQAPGKERELVAGITRRSGSTFYADSVKGRFTISRDNAKNTVYLQMNSLKPEDTAVYYCAATVPGLHWIYDYWGQGTQVTVSS | high polyreactivity
19 | QVQLVESGGGLVQAGGSLRLSCAASGSIFTVYGMGWYRQAPGKERELVAAISRSGGSTYYADSVKGRFTISRDNAKNTVYLQMNSLKPEDTAVYYCNADLVYNTLIYSGGDEYDYWGQGTQVTVSS | high polyreactivity
20 | QVQLVESGGGLVQAGGSLGLSCAAYGSTFRYYAMGWYRQAPGKERELVAAISSAGNTYYADSVKGRFTISRDNAKNTVYLQMNSLKPEDTAVYYCAAKYSYYTYAGDGGLFSCSYGYWGQGTQVTVSS | low polyreactivity
21 | QVQLVESGGGLVQAGGSLRLSCAASGRTFGWNVMGWYRQAPGKERELVAAISGSGASTYYADSVKGRFTISRDNAKNTVYLQMNSLKPEDTAVYYCAAVQGYRFYEYYYWGQGTKVTVSS | low polyreactivity
22 | QVQLGESGGGLVQAGGSLRLSCAASGFIFYVYAMGWYRQAPGKERELVAAISWSGDRTYYADSVKGRFTISRDNAKNTVYLQINSLKPEDTAVYYCAVERSVYSYYYWGQGTQVTVSS | high polyreactivity

Row | Sequence | polyreactivity (PSR sort gate)
23 | QVQLVESGGGLVQAGGSLRLSCAASGSIFINYAMGWYRQAPGKERELVAAISKNGGNTYYADSVKGRFTISRDNAKNTVYLQMNSLKPEDTAVYYCNYDYWGQGTQVTVSS | low polyreactivity
24 | QVQLVESAGALVQEGGSLRLICAASGFTFLKNAMGWYRQAPGKERELVDGISRSGGSTYYADSVKRRFTISRDKAKNPDYLQMNSQKPEDPAVYYCAAGTVQSYTWLPTRGDYWGQGSQVTVSS | high polyreactivity
25 | QVQLVESGGGLVQAGGSLRLSCAASGFIFFYNAMGWYRQAPGKERELVAAISARGGSTYYADSVKGRFTISRDNAKNTVYLQMNSLKPEDTAVYYCNAVFPWPYVSRSIYWYYWGQGTQVTVSS | high polyreactivity
26 | QVQLVESGGGLVQAGGSLRLSCAASGSIFYTYAMGWYRQAPGKEREFVASITYRGSNTYYADSVKGRFTISRDNAKNTVYLQMNSLKPEDTAVYYCAADSFYYRPEYDYWGQGTKVTVSS | low polyreactivity
27 | QVQLVESGGGLVQAGGSLRLTCAASGSTLYSYAMGWYRPAPGKERELVAAISKSGGRTYYADSVKGRFTISRDNAKISVYLEMNSLKPEDTAVYYCAGREKYTPALEVEYWGQGTQVTVSS | high polyreactivity
28 | QVQLVESGGGLVQAGGSLRLICAASGSIFNQNSMGWYRQAPGKERELVAVISSGGRTSYADSVKGRFTISRDNAKNTVFLLMNSLKPEDTAVYYCNREGWHYGPYGYWGQGTQVTVSS | low polyreactivity
29 | QVQLVESGGGLVQAGGSLRLSCAASGRIFYRYAMGWYRQAPWKEWELVADISSGTSTNYADSVKGRFTLSRDNAKNTVDLQMNSLKPEDTAVYYCAADEVRSAWRCSSPPDYDHWGQGTQVTVSS | low polyreactivity
30 | QVQLVESGGGLVQAGGSLRLSCAASGITFYDNAMGWYRQAPGKERELVAGISSGGRTYYADSVKGRFTISRDNAKNTVYLQMNSLKPEDTAVYYCNAASLVAYLARLGRDYWGQGTQVTVSS | low polyreactivity
31 | QVQLVESGGGLVQAGGSLRLSCAASGSTFGVNALGWYRQAPGKERELVAVITRSGGSTYYADSVKGRFTISRDNAKNTVYLQMNSLKPEDTAVYYCAKSGVVDWGQGTQVTVSS | low polyreactivity
32 | QVHLVESGGGLVQAGGSLRLSCAASGSTFVTYTMGWYRQAPGKERELVATITASGGSTYYADSVKGRFTISRDNEKNTVYLQMNSLKPEYTAVYYCAKRRSPVERYDFWGQGTQVTVSS | low polyreactivity
33 | QVQLVESGGGLVQAGGSLRLSCAASGLTFRYYGMGWYRQAPGKERELVAAITSSGGSTRYADSVKGRFTISRDNAKNTVYLQMNSLKPEDTAVYYCAASTWYGYDYWGQGTQVTVSS | high polyreactivity
34 | QVQLVESGGGLVQAGGSLRLSCAASGRIFGVNAMGWYRQAPGKERELVAAISSNGGRTYYADSVKGRFTISRDNAKNTVYLQMNSLKPEDTAVYYCATRSSVGARHYYWGQGTQVTVSS | high polyreactivity
35 | QVKLVDSGGGLVQAGGSLRISCAASGRIFGRYTMGWYRQAPGKERELVAGITYSGGSTYYADSVKGRFTISRDNAKNTVYLQMNSLKPEDTAVYYCAARLSGSGGFDYWGQGTQVTVSS | high polyreactivity
36 | QVQLVESGGGLVQAGGSLRLSCAASGRILSGTPMGLYRQAPRKERELVAAITNAGITKYADSVKGRFTISRDNAKNTVYLQMNSLKPEDTAVYYCATDRYAYKLYDYWGQGTKVTVSS | low polyreactivity
37 | QDQLVESGGGLVQAGGSLRISCAASGFTFDENAMGWYRQAPGINYSGASTYYADSVKGRFTISRDNAKNTVYLQMYSLKPEDTAVYYCAAEVVALMNYWGQGSQVTVSS | low polyreactivity
38 | QVQLVESGGGLVQAGGSLRLSCAASGLTFLNNAMGWYRQAPVKERELVAAISVGGSTNYADSVKGRFTISRDNAKNTVYLQMNSLKPEDTAVYYCAAVYTSASYGSWGQGTQVTVSS | low polyreactivity
39 | QVQLVESVGGLDQAGGSLRLSGAASGIIFEGNALGWYRQAPGKERELVAAITSRGTRTYYADSVKGRFTISRDHAKNTVYLQMNSLKPEDTAVYYCAKLTSVTGKSGRYGYEYWGQGTQVTVSS | high polyreactivity
40 | QVQLVESGGGLVQAGGSLRLICADSGRIFRYNSRGWYRQAPAKERELVASISTGGSSTYYADSVKGRFTISRDNAKNTVYLQMNSLKPEYSAFYYCAATPYSYSARSYGPIYRYDYWGQGTQVTVSS | high polyreactivity
41 | QVQLVESGGGLVQAGGSLRLSCAASGIIFIWNTMGWYRQAPGKEREFVAAISRSGSGTSYADSVKGRFTISRDNAKNTVYLQMNSLKPEDTAVYYWDARLEWPYDMYYWGQGTQVTVSS | low polyreactivity
42 | QVQRVESGGGLVQAGGSLRLSCAASGSIFYWYAMGWNIQAPGEEREFVAAITWSGGSTYYADSVKGRFTISRDNAKNTVYLQMNSLQPEDTAVYSCAAQGRRYGYGDFYYWGQGSQVTVSS | high polyreactivity
43 | KVQLVESAVGLVQAGGSLRLSCAASGPTFWRNAMGWYRQAPGKERELVAAISRGGSTNYADSVKGRFTISRDNAKNTVYLLMNSLKPEDTAVYYCAARYYYRYNYWGQGTQVTVSS | high polyreactivity
